Experiments:
[1] = biological target: T1, HER2 and HER3 co-expressed on human tumour cells (human, UniProt P04626 23-1255; P21860 20-1342); test: flow cytometry on MALME-3M cells, fluorochrome-labelled secondary antibody
T1 construct: whole, on cells; also called HER2/3-expressing cells; cells expressing HER2 and HER3
Experimental: (§1) The FACS analysis was carried out as described below.
(§2) Cells were washed with PBS and resuspended in DMEM containing 10% FBS at 1×10⁵ cells/100 μl. 100 μl cell suspension was added into each microcentrifuge tube, followed by 10 μl/tube of the antibody variants. The tubes were incubated for 2 hr 4° C. on a rotator. The microcentrifuge tubes were centrifuged for 2 min 2000 RPM at room temperature and the cell pellets washed with 500 μl media. Each cell pellet was resuspended 100 μl of fluorochrome-labelled secondary antibody diluted in media to 2 μg/sample. The samples were then incubated for 1 hr at 4° C. on a rotator. After incubation, the cells were centrifuged for 2 min at 2000 RPM and washed in media. The cells were resuspended in 500 μl media, filtered in tube containing 5 μl propidium iodide (PI) and analyzed on a BD™ LSRII flow cytometer according to the manufacturer's instructions.

[2] = biological target: T1, HER2 and HER3 co-expressed on human …; test: cell-based or functional assay
[3] = biological target: T2, HER3 on human tumour cells (human, UniProt P21860 20-1342); test: flow cytometry on MALME-3M cells, fluorochrome-labelled secondary antibody
T2 construct: whole, on cells; also called ErbB3
Experimental: as §1, §2

Row | Binder | EC50 (read off the curve) [1] [nM] | BT-474 cell viability relative to untreated cells (Sulforhodamine B, 6 days, no heregulin) [2] [% increase] | binding result [3]
1 | Variant 880 (bi-specific anti-HER2-HER3 antibody; B1D2 scFv on chain A, H3 scFv on chain B, heterodimeric Fc) (bispecific antibody, also called v880; bsAb variant 880) scFv-Fc A: QVQLVQSGAEVKKPGESLKISCKGSGYSFTSYWIAWVRQMPGKGLEYMGLIYPGDSDTKYSPSFQGQVTISVDKSVSTAYLQWSSLKPSDSAVYFCARHDVGYCTDRTCAKWPEWLGVWGQGTLVTVSSGGGGSSGGGSGGGGSQSVLTQPPSVSAAPGQKVTISCSGSSSNIGNNYVSWYQQLPGTAPKLLIYDHTNRPAGVPDRFSGSKSGTSASLAISGFRSEDEADYYCASWDYTLSGWVFGGGTKLTVLGAAEPKSSDKTHTCPPCPAPELLGGPSVFLFPPKPKDTLMISRTPEVTCVVVDVSHEDPEVKFNWYVDGVEVHNAKTKPREEQYNSTYRVVSVLTVLHQDWLNGKEYKCKVSNKALPAPIEKTISKAKGQPREPQVYTYPPSRDELTKNQVSLTCLVKGFYPSDIAVEWESNGQPENNYKTTPPVLDSDGSFALVSKLTVDKSRWQQGNVFSCSVMHEALHNHYTQKSLSLSPGK scFv-Fc B: not shown | ~10 | 36 | 
2 | v877 (monospecific bivalent antibody with two identical HER3-binding scFvs connected to a homodimeric Fc) (antibody, V domains shown, also called variant 877; monospecific bivalent control for HER3) VH: QVQLQESGGGLVKPGGSLRLSCAASGFTFSSYWMSWVRQAPGKGLEWVANINRDGSASYYVDSVKGRFTISRDDAKNSLYLQMNSLRAEDTAVYYCARDRGVGYFDLWGRGTLVTVSS VL: QSALTQPASVSGSPGQSITISCTGTSSDVGGYNFVSWYQQHPGKAPKLMIYDVSDRPSGVSDRFSGSKSGNTASLIISGLQADDEADYYCSSYGSSSTHVIFGGGTKVTVL |  |  | binds
